Assay results published in paper PMC9313494.

Target: Lys-Nle peptide
Assay: SPR; Lys-Nle peptide immobilised via its terminal thiol group on a CM5 chip (1123.9 RU); BMP-2 flown at increasing concentrations in PBS-T at 50 µL/min; regeneration with Gly-HCl pH 1.5; nonfunctionalized reference channel; Langmuir fit (BIAevaluation)

Kd: 36.6 nM
B1: bone morphogenetic protein-2 (BMP-2) (ligand)
chain: QAKHKQRKRLKSSCKRHPLYVDFSDVGWNDWIVAPPGYHAFYCHGECPFPLADHLNSTNHAIVQTLVNSVNSKIPKACCVPTELSAISMLYLDENEKVVLKNYQDMVVEGCGCR
